# Experimental data as given in US20160058880.
# How the values were obtained:
# [1] = test system: N-succinyl-beta-alanyl-L-leucyl-L-alanyl-L-leucyl-doxorubicin
# [2] = test system: Succinyl-βALPF-doxorubicin
substance,measurement,setting,value
"TOP (recombinant human thimet oligopeptidase, R&D systems, Ref 3439-ZN)",cleavage by purified TOP 5 nM (grade; * = less than 5% of metabolites detected),PhAc-AIGP-doxorubicin,-*
same,cleavage by purified TOP 5 nM (grade),[1],+
same,cleavage by purified TOP 5 nM (grade),PhAc-TSGP-doxorubicin,+
same,cleavage by purified TOP 5 nM (grade),PhAc-ALGP-doxorubicin,+
same,cleavage by purified TOP 5 nM (grade),[2],-
same,cleavage by purified TOP 5 nM (grade),PhAc-ALAL-doxorubicin,+
same,cleavage by purified TOP 5 nM (grade),LGP-Dox,-
same,cleavage by purified TOP 5 nM (grade),PhAc-GPGP-doxorubicin,-
same,cleavage by purified TOP 5 nM (grade),PhAc-KLGP-doxorubicin,+
same,cleavage by purified TOP 5 nM (grade; * = less than 5% of metabolites detected),PhAc-ALAF-doxorubicin,-*
same,cleavage by purified TOP 5 nM (grade),PhAc-DLGP-doxorubicin,-
same,cleavage by purified TOP 5 nM (grade; * = less than 5% of metabolites detected),PhAc-ALPF-doxorubicin,-*
